Data published in patent US20110182943A1, “METHODS OF IMMUNE OR HEMATOLOGICAL ENHANCEMENT, INHIBITING TUMOUR FORMATION OR GROWTH, AND TREATING OR PREVENTING CANCER, CANCER SYMPTOMS, OR THE SYMPTOMS OF CANCER TREATMENTS” (FONTERRA CO-OPERATIVE GROUP LIMITED, priority 2007, published 2011).

Experiments:
EL-4 tumours [1] = experiment: Tumour vascularity and blood flow (CD31, CD105, DiO7) in EL-4 tumours; type: in vivo, mice; settings: day 56
Description: To determine tumour vascularity, 10-μm frozen tumour sections were fixed with acetone, rinsed with PBS, blocked with 2% BSA for 2 hr, and incubated overnight with the anti-CD31 antibody MEC13.3, or an anti-CD105 mAb. They were subsequently incubated for 30 min with secondary antibodies using the VECTASTAIN Universal Quick kit (Vector Laboratories, Burlingame, Calif., USA); and developed with Sigma FAST DAB (3,3′-diaminobenzidine tetrahydrochloride) and CoCl2 enhancer tablets (Sigma), and counterstained with hematoxylin. Stained blood vessels were counted in five or six blindly chosen random fields (0.155 mm^2) at ×40 magnification, and the mean of the highest three counts was calculated. To visualize blood vessels open to flow, DiO7 (Molecular Probes, Eugene, Oreg.) was injected into the tail vein at a concentration of 1.0 mg/Kg one minute prior to collecting tissues, as described previously (Ding et al., 2001). The concentric circles method was also used to assess vascularity.
The effects of Lf+ and milk fat on tumour blood flow and vascularity were analyzed by staining of tumour sections prepared as described in Example 5 with anti-CD31 and anti-CD105 mAbs, and by perfusion of DiO7, and respectively. […] Stained blood vessels were counted from six mice in six blindly chosen random fields.

EL-4 target cells = experiment: Anti-tumour cytolytic activity of splenocytes from diet-fed mice; type: in vivo; settings: day 56
Description: Splenocytes were harvested following tumour cell injection on days specified. They were incubated at 37° C. with EL-4 target cells in graded E:T ratios in 96-well roundbottom plates. After a 4-hour incubation, 50 μl of supernatant was collected, and lysis was measured using the Cyto Tox 96 Assay Kit (Promega, Madison, Wis., USA). Background controls for non-specific target and effector cell lysis were included. After background subtraction, percentage of cell lysis was calculated using the formula: 100×(experimental spontaneous effector-spontaneous target/maximum target-spontaneous target).
Splenocytes were harvested from the mice described in Example 4 at day 56 and tested for their cytolytic activity against EL-4 target cells. […] The anti-tumour cytolytic activity was further increased by 86% (P<0.001) for mice fed the combination of Lf+ and milk fat compared to controls.

EL-4 tumours [2] = experiment: Tumour apoptosis (TUNEL / annexin-V-fluos) in EL-4 tumour sections; type: in vivo, mice; settings: day 56
Description: Tumours were excised and immediately frozen in dry ice, and stored at −70° C. for later in situ detection of apoptotic cells in tumours. Frozen serial sections of 6-μm thickness were fixed with paraformaldehyde solution (4% in PBS, pH 7.4), and permeabilized with a solution containing 0.1% Triton X-100 and 0.1% sodium citrate. They were incubated with 20 μl TUNEL reagent (In Situ apoptosis detection kit from Boehringer Mannheim, Germany) for 60 min at 37° C., and examined by fluorescence microscopy. Adjacent sections were counter-stained with haematoxylin to count the total number of cells, or the number of apoptotic cells in ten randomly selected fields (magnification of ×40). The apototic index (AI) was calculated as the number of apoptotic cells×100/total number of nucleated cells. For detection of apoptotic cells in vitro, the numbers of apoptotic and necrotic tumour cells were measured by staining with annexin-V-fluos, TUNEL, and trypan blue. For measurement of gut apoptosis, jejunal sections were stained by the TUNEL method using a DeadEnd™ Fluorometric TUNEL System (Promega, Madison, Wis., USA). Apoptotic cells in 10 randomly selected cypts were counted, and the data expressed as apoptotic bodies per crypt. […]

EL-4 tumour cells = experiment: EL-4 lymphoma tumour growth in mice fed experimental diets; type: in vivo, C57BL/6 mice
Source text: Mice were challenged subcutaneously with 2×10^5 EL-4 tumour cells two weeks after being placed on the diets. Tumour size as measured by two perpendicular diameters (in centimetres) was monitored until day 91, or until tumours reached 1 cm in diameter. Each point represents the mean tumour size with 95% confidence intervals for either 6 mice, or the number of mice indicated.
Groups of six mice were fed a control AIN-93G diet, diets containing either 28 g Lf+ or 120 g of milk fat (AMF) per 2.4 Kg of diet, or a diet containing a combination of both Lf and milk fat. Day 0 refers to the day the mice were placed on their diets. After 2 weeks on the diets, 2×10^5 EL-4 cells were injected into the flanks of mice. Tumour size as measured by two perpendicular diameters (in centimetres) was monitored until day 56. Each point represents the mean tumour size with 95% confidence intervals for either 6 mice, or the number of mice indicated.
Mice were challenged subcutaneously with EL-4 tumour cells two weeks after being placed on the diets. Tumour size was again measured by two perpendicular diameters (in centimetres).

B1: Lf+: Iron-saturated bovine lactoferrin extract (100% saturated) prepared from natural bLf (protein, UniProt P24627 20-708, looked up)
Lactotransferrin: APRKNVRWCTISQPEWFKCRRWQWRMKKLGAPSITCVRRAFALECIRAIAEKKADAVTLDGGMVFEAGRDPYKLRPVAAEIYGTKESPQTHYYAVAVVKKGSNFQLDQLQGRKSCHTGLGRSAGWIIPMGILRPYLSWTESLEPLQGAVAKFFSASCVPCIDRQAYPNLCQLCKGEGENQCACSSREPYFGYSGAFKCLQDGAGDVAFVKETTVFENLPEKADRDQYELLCLNNSRAPVDAFKECHLAQVPSHAVVARSVDGKEDLIWKLLSKAQEKFGKNKSRSFQLFGSPPGQRDLLFKDSALGFLRIPSKVDSALYLGSRYLTTLKNLRETAEEVKARYTRVVWCAVGPEEQKKCQQWSQQSGQNVTCATASTTDDCIVLVLKGEADALNLDGGYIYTAGKCGLVPVLAENRKSSKHSSLDCVLRPTEGYLAVAVVKKANEGLTWNSLKDKKSCHTAVDRTAGWNIPMGLIVNQTGSCAFDEFFSQSCAPGADPKSRLCALCAGDDQGLDKCVPNSKEKYYGYTGAFRCLAEDVGDVAFVKNDTVWENTNGESTADWAKNLNREDFRLLCLDGTRKPVTEAQSCHLAVAPNHAVVSRSDRAAHVKQVLLHQQALFGKNGKNCPDKFCLFKSETKNLLFNDNTECLAKLGGRPTYEEYLGTEYVTAIANLKKCSTSPLLEACAFLTR
modifications: iron-saturated
notes: Iron-saturated bovine lactoferrin extract (100% saturated) prepared from natural bLf
- reduction in number of CD31+ vessels in tumours compared to control diet (EL-4 tumours [1]): 84%
- reduction in tumour blood flow compared to control diet (EL-4 tumours [1]): 84%
- increase in anti-tumour cytolytic activity of splenocytes compared with control diet (EL-4 target cells): 66%
- increase in tumour apoptosis compared to control diet (EL-4 tumours [2]): 68%
- mice that completely rejected the tumour challenge (EL-4 tumour cells; 28 g Lf+ and/or 120 g milk fat per 2.4 Kg of diet, groups of six mice, until day 56): One of 6
- mice in which appearance of tumours was delayed by one week (EL-4 tumour cells; 28 g Lf+ or 120 g milk fat per 2.4 Kg of diet, groups of six mice): 5 of 6
- effect on tumour growth / tumorigenesis in individual mice (EL-4 tumour cells; groups of five mice, per 2.4 Kg of diet: 28 g Lf+, 120 g Phospholac 600, 1.2 g sphingomyelin): growth of two tumours being delayed by two weeks, and one by at least one week
